We go through eight substances from PMC2944808.

pKd: −log10 of the molar value. Where two headings read alike, the source gives them in different places.

Experiment [1] has as its target BMP2 (Homo sapiens) (UniProt P12643). Particulars: cited from earlier work.
Experiment [2] shares this target. The experiment in a line: SPR; BIAcore 2000; BMP2 immobilised, CV2 proteins perfused; apparent KD from koff/kon; 6 to 9 analyte concentrations, at least three independent experiments. (In general: SPR reads the build-up and loss of mass on a sensor chip optically.)
The target in experiment [3] is VWC2 domain of Chordin, mouse (mouse). The experiment is described as follows: SPR; BIAcore 2000; VWC2 domain of Chordin immobilised, CV2 proteins perfused; apparent KD from koff/kon; 6 to 9 analyte concentrations, at least three independent experiments.
The target of experiment [4] is Chordin, full-length, mouse (mouse) (UniProt Q9Z0E2). The experiment in a line: SPR; BIAcore 2000; Chordin immobilised, CV2 proteins perfused; apparent KD from koff/kon; 6 to 9 analyte concentrations, at least three independent experiments.
Experiment [5] concerns the target Crossveinless-2 (CV2), full-length, zebrafish (zebrafish). The experiment is described as follows: SPR; BIAcore 2000; CV2 immobilised on the chip (legend of Figure 1E: CV2-N), Chordin (50-600 nM) or Chordin VWC2 (10-120 nM) in solution; apparent KD.

Sequence of Chordin, full-length, mouse (mouse) (Q9Z0E2 27-948): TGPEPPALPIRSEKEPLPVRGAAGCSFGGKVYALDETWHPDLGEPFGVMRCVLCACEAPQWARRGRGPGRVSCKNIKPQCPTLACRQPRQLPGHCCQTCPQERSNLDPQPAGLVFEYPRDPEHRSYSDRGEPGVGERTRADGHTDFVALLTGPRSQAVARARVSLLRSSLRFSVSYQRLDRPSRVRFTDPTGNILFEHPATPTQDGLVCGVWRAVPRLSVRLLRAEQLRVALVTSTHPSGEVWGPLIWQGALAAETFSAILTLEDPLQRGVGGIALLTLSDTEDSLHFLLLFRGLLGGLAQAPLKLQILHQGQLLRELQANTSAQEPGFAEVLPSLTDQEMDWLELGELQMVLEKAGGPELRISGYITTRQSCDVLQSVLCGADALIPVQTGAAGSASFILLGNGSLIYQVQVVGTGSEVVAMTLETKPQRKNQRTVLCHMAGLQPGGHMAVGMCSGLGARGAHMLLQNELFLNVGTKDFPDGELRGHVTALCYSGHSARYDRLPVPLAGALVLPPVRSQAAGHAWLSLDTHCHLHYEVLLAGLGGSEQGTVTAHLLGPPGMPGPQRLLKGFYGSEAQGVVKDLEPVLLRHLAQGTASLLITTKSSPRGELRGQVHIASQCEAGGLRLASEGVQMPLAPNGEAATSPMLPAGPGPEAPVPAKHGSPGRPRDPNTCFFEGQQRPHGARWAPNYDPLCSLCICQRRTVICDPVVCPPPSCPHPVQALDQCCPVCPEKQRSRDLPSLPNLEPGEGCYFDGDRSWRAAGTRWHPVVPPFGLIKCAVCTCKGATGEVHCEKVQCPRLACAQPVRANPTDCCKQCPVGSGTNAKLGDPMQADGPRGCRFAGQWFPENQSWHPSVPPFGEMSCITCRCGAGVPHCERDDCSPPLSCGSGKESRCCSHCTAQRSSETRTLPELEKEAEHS
Sequence of BMP2 (Homo sapiens) (P12643 283-396): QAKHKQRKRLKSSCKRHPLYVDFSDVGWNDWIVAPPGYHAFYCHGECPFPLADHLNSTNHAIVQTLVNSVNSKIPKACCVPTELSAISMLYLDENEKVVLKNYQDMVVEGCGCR
Sequence of Chordin (Q9H2X0 27-955): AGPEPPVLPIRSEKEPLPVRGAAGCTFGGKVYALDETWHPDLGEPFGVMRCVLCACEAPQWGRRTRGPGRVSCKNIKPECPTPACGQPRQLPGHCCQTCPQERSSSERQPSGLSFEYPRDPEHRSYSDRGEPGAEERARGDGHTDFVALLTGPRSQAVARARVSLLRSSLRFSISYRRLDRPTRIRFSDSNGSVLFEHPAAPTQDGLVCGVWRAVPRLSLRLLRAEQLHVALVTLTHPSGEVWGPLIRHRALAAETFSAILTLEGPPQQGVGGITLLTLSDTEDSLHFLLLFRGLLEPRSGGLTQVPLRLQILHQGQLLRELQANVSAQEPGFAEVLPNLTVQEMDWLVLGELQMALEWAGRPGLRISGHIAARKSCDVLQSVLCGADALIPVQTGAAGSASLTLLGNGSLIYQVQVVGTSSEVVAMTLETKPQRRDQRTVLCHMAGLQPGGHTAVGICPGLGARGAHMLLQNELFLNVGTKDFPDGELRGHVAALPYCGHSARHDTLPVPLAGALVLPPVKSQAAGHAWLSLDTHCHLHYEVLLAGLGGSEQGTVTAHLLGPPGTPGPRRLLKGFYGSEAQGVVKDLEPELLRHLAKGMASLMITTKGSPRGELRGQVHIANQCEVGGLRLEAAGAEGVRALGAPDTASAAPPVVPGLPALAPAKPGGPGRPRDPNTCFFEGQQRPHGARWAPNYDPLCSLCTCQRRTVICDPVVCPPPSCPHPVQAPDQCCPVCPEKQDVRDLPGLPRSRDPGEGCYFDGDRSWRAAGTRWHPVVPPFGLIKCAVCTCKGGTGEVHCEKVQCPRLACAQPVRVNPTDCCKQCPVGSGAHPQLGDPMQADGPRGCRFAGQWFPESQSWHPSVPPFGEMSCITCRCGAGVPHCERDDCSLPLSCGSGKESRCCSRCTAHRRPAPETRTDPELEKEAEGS

As for Chordin (from UniProt Q9H2X0), in the experiment with BMP2 (Homo sapiens) [1], the pKd is 7.70.
In the case of CV2 T5P/I21R (natural protein), the figures for the pKd (with BMP2 (Homo sapiens) [2]; in experiment [3]; in experiment [4]) were 4.74, 6.76 and 6.74, respectively.
On the same counts, the results for CV2-VWC1-5 (CV2-N) (domain or fragment) are 7.60, 6.85 and 6.77.
Take CV2-VWC1-3 (domain or fragment): the pKd with BMP2 (Homo sapiens) [2] was 7.62.
Take “VWC2 domain of Chordin, mouse (domain or fragment)”: in experiment [5], the negative logarithm of the Kd (pKd) was 8.30.
Turning to CV2 ΔSD2 (domain or fragment), the pKd with BMP2 (Homo sapiens) [2] is 7.66.
For “Crossveinless-2 (CV2), full-length, zebrafish (natural protein)”, the pKd with BMP2 (Homo sapiens) [2] is 7.66; in experiment [3], 6.82; in experiment [4], 6.76.
For the substance CV2 ΔClip-SD1 (domain or fragment), the pKd is 6.77 in experiment [3] and 6.73 in experiment [4].

Usually pKd stands for the Kd on a negative log10 scale, so that one unit is a factor of ten.
